The results in this text go back to publication PMC11984302.

Common to all, as to details: SICS: thrombin in 1 M KCl (or 150 mM KCl), pH 7.5, 30 min incubation, 300 mV; gel: 16% Tris-Glycine; temperature not stated
The target in data set [1] is T1, thrombin (human plasma, Sigma-Aldrich) (Homo sapiens) (UniProt P00734+P00734). Briefly: single-molecule SICS nanopore.
In data set [2] the target is T1, thrombin (human plasma, Sigma-Aldrich) (Homo sapiens). Briefly: free translocation nanopore.
Data set [3] shares this target. Briefly: single-molecule SICS nanopore. This is another data set of the same source.

For the sequence “TCAGCTTGCGGAGATGCGATGGTTGGTGTGGTTGGATCGAGAAAAAGGTACGCCC / GGGCGTACCTTTTTCTCGATATCGCATCTCCGCAAGCTGA [extended TBA 1 in single-gap DNA carrier]”, the binding signal (% carriers with thrombin bound) in data set [1] is over 30; in data set [3], 52. In addition, the binding signal (% events with thrombin bound) in data set [2] was determined as 14.1.
